Data reported in US20100322937A1 (published 2010).

Experiments:
[1] = molecular target: T1, Y^246W EGFR (full-length human, FLAG tag) on BaF/3 cells (human, UniProt P00533 25-1210); assay: cell-based or functional assay
[2] = molecular target: T2, E^578C EGFR (full-length human, FLAG tag) on BaF/3 cells (human, UniProt P00533 25-1210); assay: cell-based or functional assay
[3] = molecular target: T3, Y^246F EGFR (full-length human, FLAG tag) on BaF/3 cells (human, UniProt P00533 25-1210); assay: cell-based or functional assay
[4] = molecular target: T4, V^583D EGFR (full-length human, FLAG tag) on BaF/3 cells (human, UniProt P00533 25-1210); assay: cell-based or functional assay
[5] = molecular target: T5, Y^246D EGFR (full-length human, FLAG tag) on BaF/3 cells (human, UniProt P00533 25-1210); assay: cell-based or functional assay
[6] = molecular target: T6, D^563H EGFR (full-length human, FLAG tag) on BaF/3 cells (human, UniProt P00533 25-1210); assay: cell-based or functional assay
[7] = molecular target: T7, wtEGFR: full-length human EGFR with FLAG tag after the leader, on BaF/3 cells (human, UniProt P00533 25-1210); assay: cell-based or functional assay
[8] = molecular target: T4, V^583D EGFR (full-length human, FLAG …); assay: Scatchard, 125I-EGF on BaF/3 cells, Kd1 (high-affinity site)
Method: (§1) Ligand binding to cells expressing the wt or mutant EGFR was determined at room temperature in the presence of the internalization inhibitor phenylarsine oxide (PAO) (29) by cold saturation experiments. […] All experimental points were prepared in triplicate. At the end of the incubation, the cells were pelleted and washed twice in ice-cold PBS before transferring to fresh tubes for counting in a Wallac WIZARD γ-counter (PerkinElmer, Boston, Mass.). Scatchard plots and estimates of ligand binding affinities and receptor numbers were obtained using the Radlig program (BioSoft, Cambridge, UK).
(§2) Data were analyzed using the “Kell for Windows” RadLig program. ^{(a)}Number of receptors per cell were calculated from the Bₘₐₓ and the number of cells/tube in each ligand binding experiment.

[9] = molecular target: T6, D^563H EGFR (full-length human, FLAG …); assay: as above
Method: as §1, §2

[10] = molecular target: T7, wtEGFR: full-length human EGFR with …; assay: as above
Method: as §1, §2

[11] = molecular target: T1, Y^246W EGFR (full-length human, FLAG …); assay: calculated from Scatchard Kd and Bmax
Method: as §1
(§3) The data are representative of at least three separate experiments

[12] = molecular target: T2, E^578C EGFR (full-length human, FLAG …); assay: calculated from Scatchard Kd and Bmax
Method: as §1, §3

[13] = molecular target: T3, Y^246F EGFR (full-length human, FLAG …); assay: calculated from Scatchard Kd and Bmax
Method: as §1, §3

[14] = molecular target: T4, V^583D EGFR (full-length human, FLAG …); assay: calculated from Scatchard Kd and Bmax
Method: as §1, §3

[15] = molecular target: T5, Y^246D EGFR (full-length human, FLAG …); assay: calculated from Scatchard Kd and Bmax
Method: as §1, §3

[16] = molecular target: T6, D^563H EGFR (full-length human, FLAG …); assay: calculated from Scatchard Kd and Bmax
Method: as §1, §3

[17] = molecular target: T7, wtEGFR: full-length human EGFR with …; assay: calculated from Scatchard Kd and Bmax
Method: as §1, §3

[18] = molecular target: T1, Y^246W EGFR (full-length human, FLAG …); assay: Scatchard, 125I-EGF on BaF/3 cells
Method: as §1, §2

[19] = molecular target: T2, E^578C EGFR (full-length human, FLAG …); assay: Scatchard, 125I-EGF on BaF/3 cells
Method: as §1, §2

[20] = molecular target: T3, Y^246F EGFR (full-length human, FLAG …); assay: Scatchard, 125I-EGF on BaF/3 cells
Method: as §1, §2

[21] = molecular target: T4, V^583D EGFR (full-length human, FLAG …); assay: Scatchard, 125I-EGF on BaF/3 cells
Method: as §1, §2

[22] = molecular target: T5, Y^246D EGFR (full-length human, FLAG …); assay: Scatchard, 125I-EGF on BaF/3 cells
Method: as §1, §2

[23] = molecular target: T6, D^563H EGFR (full-length human, FLAG …); assay: Scatchard, 125I-EGF on BaF/3 cells
Method: as §1, §2

[24] = molecular target: T7, wtEGFR: full-length human EGFR with …; assay: Scatchard, 125I-EGF on BaF/3 cells
Method: as §1, §2

[25] = molecular target: T8, L^245C/E^578C EGFR (full-length human, FLAG tag) on BaF/3 cells (human, UniProt P00533 25-1210); assay: Scatchard, 125I-EGF on BaF/3 cells
T8 construct: whole, on cells
Method: as §1, §2

[26] = molecular target: T1, Y^246W EGFR (full-length human, FLAG …); assay: Scatchard, 125I-EGF on BaF/3 cells, Kd2 (low-affinity site)
Method: as §1, §2

[27] = molecular target: T2, E^578C EGFR (full-length human, FLAG …); assay: as above
Method: as §1, §2

[28] = molecular target: T3, Y^246F EGFR (full-length human, FLAG …); assay: as above
Method: as §1, §2

[29] = molecular target: T4, V^583D EGFR (full-length human, FLAG …); assay: as above
Method: as §1, §2

[30] = molecular target: T5, Y^246D EGFR (full-length human, FLAG …); assay: as above
Method: as §1, §2

[31] = molecular target: T6, D^563H EGFR (full-length human, FLAG …); assay: as above
Method: as §1, §2

[32] = molecular target: T7, wtEGFR: full-length human EGFR with …; assay: as above
Method: as §1, §2

[33] = molecular target: T8, L^245C/E^578C EGFR (full-length human, …); assay: as above
Method: as §1, §2

- % maximal incorporation ([^3H]Thymidine) [1]: 0%
- % maximal incorporation ([^3H]Thymidine) [2]: 100%
- EC50 for EGF ([^3H]Thymidine incorporation) [2]: 0.1 nM
- % maximal incorporation ([^3H]Thymidine) [3]: 16%
- EC50 for EGF ([^3H]Thymidine incorporation) [3]: 0.03 nM
- % maximal incorporation ([^3H]Thymidine) [4]: 100%
- EC50 for EGF ([^3H]Thymidine incorporation) [4]: 0.006 nM
- % maximal incorporation ([^3H]Thymidine) [5]: 0%
- % maximal incorporation ([^3H]Thymidine) [6]: 90%
- EC50 for EGF ([^3H]Thymidine incorporation) [6]: 0.005 nM
- % maximal incorporation ([^3H]Thymidine) [7]: 100%
- EC50 for EGF ([^3H]Thymidine incorporation) [7]: 0.012 nM
- Kd [8]: 0.0026 nM
- Kd [9]: 0.0176 nM
- Kd [10]: 0.029 nM
- [EGF] at which 500R/cell are occupied [11]: 60 pM
- [EGF] at which 500R/cell are occupied [12]: 80 pM
- [EGF] at which 500R/cell are occupied [13]: 30 pM
- [EGF] at which 500R/cell are occupied [14]: < 1 pM
- [EGF] at which 500R/cell are occupied [15]: 400 pM
- [EGF] at which 500R/cell are occupied [16]: 8 pM
- [EGF] at which 500R/cell are occupied [17]: 16 pM
- % of sites (Kd2) [18]: 100%
- R/cell (from Bmax) [18]: 29000 receptors/cell
- % of sites (Kd2) [19]: 100%
- R/cell (from Bmax) [19]: 34500 receptors/cell
- % of sites (Kd2) [20]: 100%
- R/cell (from Bmax) [20]: 30000 receptors/cell
- % of sites (Kd1) [21]: 12.6%
- % of sites (Kd2) [21]: 90.8%
- R/cell (from Bmax) [21]: 38000 receptors/cell
- % of sites (Kd2) [22]: 100%
- R/cell (from Bmax) [22]: 12000 receptors/cell
- % of sites (Kd1) [23]: 4.4%
- % of sites (Kd2) [23]: 96.4%
- R/cell (from Bmax) [23]: 23000 receptors/cell
- % of sites (Kd1) [24]: 2.6%
- % of sites (Kd2) [24]: 97.5%
- R/cell (from Bmax) [24]: 34000 receptors/cell
- % of sites (Kd2) [25]: 100%
- Kd [26]: 2.5 nM
- Kd [27]: 1.7 nM
- Kd [28]: 2.8 nM
- Kd [29]: 1.3 nM
- Kd [30]: 2.1 nM
- Kd [31]: 1.7 nM
- Kd [32]: 1.6 nM
- Kd [33]: 2.1 nM
B1: Murine EGF, purified from mouse submaxillary glands (ligand, UniProt P01132 977-1029, looked up)
chain: NSYPGCPSSYDGYCLNGGVCMHIESLDSYTCNCVIGYSGDRCQTRDLRWWELR
modifications: iodinated with 125I (Iodogen) as tracer in the Scatchard assays
notes: mature; also called ^125I-EGF
